Source: US20240024505

Key:
[1] = target: endogenous IGFBP-3 in human synovial fluid, P17936
[2] = target: recombinant IGFBP-3, P17936
Chain of recombinant IGFBP-3, P17936 (P17936 28-291): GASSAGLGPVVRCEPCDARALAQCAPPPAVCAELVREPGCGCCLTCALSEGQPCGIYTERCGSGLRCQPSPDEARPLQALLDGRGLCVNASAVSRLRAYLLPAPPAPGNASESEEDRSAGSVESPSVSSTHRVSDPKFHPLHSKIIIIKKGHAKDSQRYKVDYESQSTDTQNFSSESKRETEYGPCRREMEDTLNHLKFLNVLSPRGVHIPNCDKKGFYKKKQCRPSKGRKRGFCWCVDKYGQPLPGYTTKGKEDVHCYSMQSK

Chain of endogenous IGFBP-3 in human synovial fluid, P17936 (P17936 28-291): as above

B1: PAPPA2 from conditioned media (protein)
chain: PPEESNQNGGEGSYREAETFNSQVGLPILYFSGRRERLLLRPEVLAEIPREAFTVEAWVKPEGGQNNPAIIAGVFDNCSHTVSDKGWALGIRSGKDKGKRDARFFFSLCTDRVKKATILISHSRYQPGTWTHVAATYDGRHMALYVDGTQVASSLDQSGPLNSPFMASCRSLLLGGDSSEDGHYFRGHLGTLVFWSTALPQSHFQHSSQHSSGEEEATDLVLTASFEPVNTEWVPFRDEKYPRLEVLQGFEPEPEILSPLQPPLCGQTVCDNVELISQYNGYWPLRGEKVIRYQVVNICDDEGLNPIVSEEQIRLQHEALNEAFSRYNISWQLSVHQVHNSTLRHRVVLVNCEPSKIGNDHCDPECEHPLTGYDGGDCRLQGRCYSWNRRDGLCHVECNNMLNDFDDGDCCDPQVADVRKTCFDPDSPKRAYMSVKELKEALQLNSTHFLNIYFASSVREDLAGAATWPWDKDAVTHLGGIVLSPAYYGMPGHTDTMIHEVGHVLGLYHVFKGVSERESCNDPCKETVPSMETGDLCADTAPTPKSELCREPEPTSDTCGFTRFPGAPFTNYMSYTDDNCTDNFTPNQVARMHCYLDLVYQQWTESRKPTPIPIPPMVIGQTNKSLTIHWLPPISGVVYDRASGSLCGACTEDGTFRQYVHTASSRRVCDSSGYWTPEEAVGPPDVDQPCEPSLQAWSPEVHLYHMNMTVPCPTEGCSLELLFQHPVQADTLTLWVTSFFMESSQVLFDTEILLENKESVHLGPLDTFCDIPLTIKLHVDGKVSGVKVYTFDERIEIDAALLTSQPHSPLCSGCRPVRYQVLRDPPFASGLPVVVTHSHRKFTDVEVTPGQMYQYQVLAEAGGELGEASPPLNHIHGAPYCGDGKVSERLGEECDDGDLVSGDGCSKVCELEEGFNCVGEPSLCYMYEGDGICEPFERKTSIVDCGIYTPKGYLDQWATRAYSSHEDKKKCPVSLVTGEPHSLICTSYHPDLPNHRPLTGWFPCVASENETQDDRSEQPEGSLKKEDEVWLKVCFNRPGEARAIFIFLTTDGLVPGEHQQPTVTLYLTDVRGSNHSLGTYGLSCQHNPLIINVTHHQNVLFHHTTSVLLNFSSPRVGISAVALRTSSRIGLSAPSNCISEDEGQNHQGQSCIHRPCGKQDSCPSLLLDHADVVNCTSIGPGLMKCAITCQRGFALQASSGQYIRPMQKEILLTCSSGHWDQNVSCLPVDCGVPDPSLVNYANFSCSEGTKFLKRCSISCVPPAKLQGLSPWLTCLEDGLWSLPEVYCKLECDAPPIILNANLLLPHCLQDNHDVGTICKYECKPGYYVAESAEGKVRNKLLKIQCLEGGIWEQGSCIPVVCEPPPPVFEGMYECTNGFSLDSQCVLNCNQEREKLPILCTKEGLWTQEFKLCENLQGECPPPPSELNSVEYKCEQGYGIGAVCSPLCVIPPSDPVMLPENITADTLEHWMEPVKVQSIVCTGRRQWHPDPVLVHCIQSCEPFQADGWCDTINNRAYCHYDGGDCCSSTLSSKKVIPFAADCDLDECTCRDPKAEENQ
[1]
  protease activity: intact IGFBP-3 in synovial fluid by ELISA: Treatment of healthy or diseased human synovial fluid with conditioned media containing PAPPA2 results in a significant decrease in intact IGFBP-3
[2]
  IGF-1 signaling (AP-1 driven bioluminescence) in the presence of IGFBP-3: Treatment with PAPPA2 allows for robust IGF-1 signaling in the modeled healthy and disease-state
  protease activity: intact IGFBP-3 by ELISA: PAPPA2 from conditioned media efficiently cleaves IGFBP-3, as measured by an ELISA for intact IGFBP-3, with and without bound IGF-1
